Data as given in patent US20240368307A1, “METHODS AND COMPOSITIONS FOR TREATING SEPSIS” (THE UNIVERSITY OF CHICAGO, priority 2023, published 2024).

T1: human recombinant PLA2G5 (Homo sapiens, UniProt P39877)
T1 construct: purchased Cayman chemical 10009563
T1 sequence (P39877 21-138): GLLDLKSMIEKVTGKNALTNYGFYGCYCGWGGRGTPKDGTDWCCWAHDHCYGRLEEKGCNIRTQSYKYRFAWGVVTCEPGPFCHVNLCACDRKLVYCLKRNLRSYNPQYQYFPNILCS

B1: rPLA2G5: human recombinant PLA2G5 (Cayman chemical, 10009563) (protein, UniProt P39877 21-138, looked up)
Phospholipase A2 group V: T1 sequence (P39877 21-138)

Tests used:
human recombinant PLA2G5 = target: T1, human recombinant PLA2G5; assay: In vitro erythrocyte lysis assay with varespladib; type: cell-based; conditions: 100 nM of varespladib; PS-exposing erythrocytes
Procedure: (§1) The inventors hypothesized that PLA2G5 impacted red blood cells because of the impact of PLA2G5 blockade on splenic red pulp macrophages and iron stores. […] Next, the inventors examined the effect of osmotic pressure on the hemolysis induced by rPLA2G5.
In vitro erythrocyte lysis assay. Mouse whole blood was spun at 1,000 g, the plasma and buffy coat were removed, and red blood cells were washed three times in Hepes-buffered saline. Subsequently, a portion of erythrocytes was incubated with 100 μM CaCl2) in Hepes-buffered saline for 3 min at 37° C. Calcium ionophore (Cayman Chemical, A23187) was added to a final concentration of 4 μM, and the cells were further incubated for 10 min at 37° C. to induce membrane phospholipid (PS) scrambling. After that, 2 mM EDTA was added to stop the reaction. […] Hemolysis was measured by determining the amount of oxyhemoglobin in the supernatant of erythrocyte suspensions after centrifugation at 4,000 g. The absorbance at 414 nm in the supernatant of erythrocyte suspensions was measured using Nanodrop (Thermoscientific) and compared to that of a hemolyzed aliquot of the same erythrocyte suspension treated with Triton X-100.

mouse RBCs = assay: In vitro erythrocyte lysis assay with recombinant PLA2G5; type: cell-based
Procedure: as §1
In vitro erythrocyte lysis assay. Mouse whole blood was spun at 1,000 g, the plasma and buffy coat were removed, and red blood cells were washed three times in Hepes-buffered saline. Subsequently, a portion of erythrocytes was incubated with 100 μM CaCl2) in Hepes-buffered saline for 3 min at 37° C. Calcium ionophore (Cayman Chemical, A23187) was added to a final concentration of 4 μM, and the cells were further incubated for 10 min at 37° C. to induce membrane phospholipid (PS) scrambling. After that, 2 mM EDTA was added to stop the reaction. In the presence or absence of 100 nM of varespladib, hypertonic solution (100 mM NaCl), or hypotonic solution (water-diluted Hepes-buffered saline), PS-exposing or untreated erythrocytes (10^9 cells/mL) were incubated with 5, 50, or 500 ng/mL of human recombinant PLA2G5 (Cayman chemical, 10009563) for 1 h at 37° C. in Hepes-buffered saline with 2 mM of calcium for the activity of PLA2G5. Hemolysis was measured by determining the amount of oxyhemoglobin in the supernatant of erythrocyte suspensions after centrifugation at 4,000 g. The absorbance at 414 nm in the supernatant of erythrocyte suspensions was measured using Nanodrop (Thermoscientific) and compared to that of a hemolyzed aliquot of the same erythrocyte suspension treated with Triton X-100.

erythrocytes = assay: Lipidomics analysis of erythrocytes incubated with rPLA2G5; type: cell-based, mouse; conditions: 100 ng/mL rPLA2G5; 1 h at 37° C.
Text: To elucidate how PLA2G5 affected RBC membranes at the molecular level during hemolysis, the inventors performed lipidomics on erythrocytes in the presence or absence of rPLA2G5 in vitro.
Lipidomics analysis of erythrocytes. The procedures for lipidomics analysis using high-performance liquid chromatography coupled with electrospray tandem mass spectrometry (LC-ESI-MS/MS) were described above. Mouse whole blood was spun at 1,000 g, the plasma and buffy coat were removed, and red blood cells were washed three times in Hepes-buffered saline. Subsequently, a portion of erythrocytes was incubated with 100 μM CaCl2) in Hepes-buffered saline for 3 min at 37° C. Calcium ionophore (Cayman Chemical, A23187) was added to a final concentration of 4 μM, and the cells were further incubated for 10 min at 37° C. to induce membrane phospholipid (PS) scrambling. After that, 2 mM EDTA was added to stop the reaction. PS-exposing or untreated erythrocytes (10^9 cells/mL) were incubated with or without 100 ng/mL of human recombinant PLA2G5 (Cayman chemical, 10009563) for 1 h at 37° C. in Hepes-buffered saline with 2 mM of calcium for the activity of PLA2G5. The samples were kept at −80° C. until the following procedures.

[1] = Recombinant PLA2G5 injection in naive mice; type: in vivo, mouse; conditions: 10 μg rPLA2G5 intravenously
Text: Next, the inventors hypothesized that PLA2G5 impacted red blood cells in vivo during sepsis. To test this hypothesis, the inventors measured the plasma levels of heme, a degradation product of cell-free hemoglobin, in Pla2g5^+/+ and Pla2g5^−/− mice challenged with LPS. The inventors found a significant decrease in the plasma levels of heme in Pla2g5-deficient mice compared to wild type (FIG. 7A). […] The inventors next asked if PLA2G5 would be sufficient to induce intravascular hemolysis in vivo by injecting rPLA2G5 in naïve mice.
Recombinant PLA2G5 injections. C57BL/6J mice were injected intravenously with 10 μg of recombinant PLA2G5 (Cayman chemical, 10009563).
Blood analysis. Mouse whole blood was harvested by cardiac puncture and plasma and serum were isolated using lithium heparin coated Microtainer blood collection tubes (BD 365965) and Microtainer blood collection tubes (BD 365978), respectively. For flow cytometric, bead-based immunoassays, serum was diluted and processed using the LEGENDplex Mouse Macrophage/Microglia Panel (BioLegend 740846) kit. Data were acquired on the NovoCyte flow cytometer (Acea Biosciences/Agilent) and analyzed using the LEGNEDplex software v8 (BioLegend). To measure tissue injury marker levels in sera or plasma, samples were processed by In Vivo Animal Core, University of Michigan, with the following kits for BUN (BioAssay Systems DIUR-100), ALT (Cayman Chemical 700260), and troponin-I (Life Diagnostics CTNI-1-HS) levels according to the manufacturer's instructions, or with a Vet Axcel blood chemistry analyser (Alfa Wasserman). Total plasma heme was measured with the 3,3′,5,5′ tetramethylbenzidine (TMB) peroxidase assay and oxyhemoglobin with a Nanodrop One (Thermoscientific) instrument.

| Molecule | effect on the hemolytic effects of rPLA2G5 (human recombinant PLA2G5) | RBC lysis (cell-free oxyhemoglobin) (mouse RBCs; RBCs treated with Ca2+ and calcium ionophore, 5, 50, or 500 ng/mL rPLA2G5, 1 h at 37° C.) | hemolysis mediated by rPLA2G5 in hypertonic conditions (mouse RBCs; hypertonic solution (100 mM NaCl)) | hemolysis mediated by rPLA2G5 in hypotonic conditions (mouse RBCs; hypotonic solution (water-diluted Hepes-buffered saline)) | lipids released from RBC membranes (erythrocytes) | plasma level of heme [1] | plasma level of oxyhemoglobin [1] | serum level of ALT [1] | serum level of BUN [1] |
| --- | --- | --- | --- | --- | --- | --- | --- | --- | --- |
| CCc1c(C(=O)C(N)=O)c2c(OCC(=O)O)cccc2n1Cc1ccccc1 [varespladib] | the hemolytic effects of rPLA2G5 were dependent on its phospholipase activity | – | – | – | – | – | – | – | – |
| B1 | – | increased RBC lysis in a dose-dependent manner | inhibited hemolysis | promoted hemolysis | release of lysophospholipids with saturation and lower degrees of unsaturation and fatty acids | sufficient to elevate | sufficient to elevate | sufficient to elevate | sufficient to elevate |
